The target of assay [1] is T1, human serum albumin (human, UniProt P02768 25-609).
T1 construct: mature; Bought purified serum albumin; also called HSA; Human albumin
The assay can be described thus: SPR, Fab captured, HSA. A general note: SPR reads the build-up and loss of mass on a sensor chip optically.
Description: (§1) For analysis at pH 7.0, 6.0, 5.5 and 5.0, a running buffer of 40 mM citric acid, 80 mM sodium phosphate 50 mM NaCl, 3 mM EDTA, 0.05% v/v P20 was used. The required pH was achieved by altering the ratio of citric acid to sodium phosphate. All experiments were performed at 25° C. The antibody samples were captured to the sensor chip surface using either a human F(ab′)₂-specific or human Fc-specific goat Fab (Jackson ImmunoResearch). Covalent immobilisation of the capture antibody was achieved by standard amine coupling chemistry to a level of 6000-7000 response units (RU).
(§2) Each assay cycle consisted of firstly capturing the antibody sample using a 1 min injection, before an association phase consisting of a 3 min injection of albumin, after which dissociation was monitored. After each cycle, the capture surface was regenerated with two 1 min injections of 40 mM HCl followed by 30 s of 5 mM NaOH. The flow rates used were 10 μl/min for capture, 30 μl/min for both the association and dissociation phases, and 10 μl/min for regeneration. A blank flow-cell was used for reference subtraction and buffer-blank injections were included to subtract instrument noise and drift.

The target of assay [2] is T1, human serum albumin. Description: SPR at pH 7.0.
Description: as §1, §2
Assay [3] deals with T1, human serum albumin. Description: SPR at pH 5.0.
Description: as §1, §2
Assay [4] concerns the target T1, human serum albumin. Description: SPR, Fab captured, albumin titrated.
Description: as §1, §2
For assay [5], the target named is T2, mouse serum albumin (mouse, UniProt P07724 25-608).
T2 construct: mature; Bought purified serum albumin; also called MSA; Mouse albumin
Description: SPR, Fab captured, albumin titrated.
Description: as §1, §2

The target of assay [6] is T1, human serum albumin. The assay can be described thus: SPR at pH 5.5.
Assay [7] deals with T3, rabbit serum albumin (rabbit, UniProt P49065 25-608).
T3 construct: mature; Bought purified serum albumin; also called RbSA; Rabbit albumin
Description: SPR, Fab captured, albumin titrated.
Description: as §1, §2

For assay [8], the target named is T1, human serum albumin. The assay can be described thus: SPR, Fab captured, albumin titrated. This is another data set of the same source.
Description: as §1, §2
A further assay has as its target T4, bovine serum albumin (bovine, UniProt P02769 25-607).
T4 construct: mature; Bought purified serum albumin; also called BSA; Bovine albumin
The assay can be described thus: SPR, Fab captured, albumin titrated.

In assay [9] the target is T5, rat serum albumin (rat, UniProt P02770 25-608).
T5 construct: mature; Bought purified serum albumin; also called RSA; Rat albumin
Description: SPR, Fab captured, albumin titrated.
Description: as §1, §2

The next assay deals with T6, cynomolgus serum albumin (cynomolgus, UniProt A2V9Z4 25-608).
T6 construct: mature; Bought purified serum albumin; also called CSA; Cynomolgus albumin
The assay can be described thus: SPR, Fab captured, albumin titrated.

Assay [10] addresses T2, mouse serum albumin. Description: SPR, Fab captured, albumin titrated. The source holds these as a separate data set.
Description: as §1, §2
Assay [11] has as its target T3, rabbit serum albumin. The assay can be described thus: SPR.
Description: as §1, §2
Assay [12] addresses T5, rat serum albumin. Description: SPR.
Description: as §1, §2
In assay [13] the target is T2, mouse serum albumin. Description: SPR.
Description: as §1, §2
For assay [14], the target named is T1, human serum albumin. The assay can be described thus: SPR, Fab captured; albumin taken as HSA.
Description: as §2
Assay [15] deals with T1, human serum albumin. Description: SPR, Fab captured; albumin taken as HSA. The source holds these as a separate data set.
Description: as §2
For assay [16], the target named is T1, human serum albumin. The assay can be described thus: SPR, Fab captured; albumin taken as HSA. The source holds these as a separate data set.
Description: as §2
Assay [17] concerns the target T1, human serum albumin. Description: SPR at pH 6.0.
Description: as §1, §2
Assay [18] has as its target T1, human serum albumin. The assay can be described thus: SPR, humanized IgG1.
Description: as §1, §2
The target in assay [19] is T5, rat serum albumin. Description: SPR, humanized IgG1.
Description: as §1, §2
Assay [20] deals with T2, mouse serum albumin. The assay can be described thus: SPR, humanized IgG1.
Description: as §1, §2
Assay [21] deals with T1, human serum albumin. Description: SPR, HSA.
Description: as §1, §2
The target in assay [22] is T1, human serum albumin. Description: SPR, rabbit Fab.
Assay [23] has as its target T2, mouse serum albumin. The assay can be described thus: SPR, rabbit Fab.
The target of assay [24] is T5, rat serum albumin. Description: FMAT, B cell supernatant.

Where a chain is given by its changes, count along the chain named. Where “and” joins values, the source holds several entries; their conditions need not be identical. Identical values can stand only once. Like-named read-outs stand apart in the source and are kept apart here. Bounds are passed on as bounds.

Description for bovine serum albumin: as §1, §2
Description for cynomolgus serum albumin: as §1, §2

B1: CA645 gL4gH5 Fab (Fab, V domains shown)
VH: EVQLLESGGGLVQPGGSLRLSCAVSGIDLSNYAINWVRQAPGKGLEWIGIIWASGTTFYATWAKGRFTISRDNSKNTVYLQMNSLRAEDTAVYYCARTVPGYSTAPYFDLWGQGTLVTVSS
VL: DIQMTQSPSSVSASVGDRVTITCQSSPSVWSNFLSWYQQKPGKAPKLLIYEASKLTSGVPSRFSGSGSGTDFTLTISSLQPEDFATYYCGGGYSSISDTTFGGGTKVEIK
notes: Humanized Fab: human gamma1 CH1, human kappa constant region (Km3); parent of all mutants; also called CA645 Fab; Fab_645
Regarding B1, the dissociation constant (Kd) – broadly, the equilibrium constant for the complex coming apart – came to 1.23 nM with human serum albumin [1]; 13.3 nM with human serum albumin [2]; 7.1 nM with human serum albumin [3]; 1.8 nM in the assay with human serum albumin [4]; 2.2 nM with mouse serum albumin [5]; 10.7 nM with human serum albumin [6]. The Kd with rabbit serum albumin [7] is 162 nM; in the assay with human serum albumin [8] it was 4.6 nM; with rat serum albumin [9], 54 nM; in the assay with cynomolgus serum albumin, 3.3 nM; in the assay with mouse serum albumin [10] it was 7.1 nM; in the assay with human serum albumin [14] it was 2.97 nM and 3.8 nM. For the same molecule, the Kd with human serum albumin [15] is 2.14 nM and 2.51 nM; with human serum albumin [16], 2.72 nM and 2.7 nM; with human serum albumin [17], 12.5 nM. For the same molecule, the koff – broadly, a measure of how fast the partners let go of each other – with human serum albumin [1] is 0.000172 s⁻¹; with human serum albumin [4], 0.0004 s⁻¹; with mouse serum albumin [5], 0.00068 s⁻¹; with rabbit serum albumin [7], 0.00029 s⁻¹; with human serum albumin [8], 0.00041 s⁻¹; with rat serum albumin [9], 0.0013 s⁻¹. Besides, the koff with cynomolgus serum albumin was 0.00035 s⁻¹; with mouse serum albumin [10] it was 0.00034 s⁻¹; with human serum albumin [14], 0.000167 s⁻¹ and 0.000211 s⁻¹; with human serum albumin [15], 0.000123 s⁻¹ and 0.00014 s⁻¹; with human serum albumin [16] it was 0.000161 s⁻¹ and 0.000158 s⁻¹. Besides, the kon (usually a measure of how fast the partners come together) in the assay with human serum albumin [1] turned out to be 139000 M⁻¹ s⁻¹; in the assay with human serum albumin [4], 220000 M⁻¹ s⁻¹; with mouse serum albumin [5] it was 310000 M⁻¹ s⁻¹; with rabbit serum albumin [7], 2000 M⁻¹ s⁻¹; with human serum albumin [8] it was 90000 M⁻¹ s⁻¹; in the assay with rat serum albumin [9], 24000 M⁻¹ s⁻¹. Moreover, the kon in the assay with cynomolgus serum albumin was 100000 M⁻¹ s⁻¹; with mouse serum albumin [10], 48000 M⁻¹ s⁻¹; in the assay with human serum albumin [14], 56200 M⁻¹ s⁻¹ and 55700 M⁻¹ s⁻¹; with human serum albumin [15], 57500 M⁻¹ s⁻¹ and 56000 M⁻¹ s⁻¹; with human serum albumin [16] it was 59100 M⁻¹ s⁻¹ and 58600 M⁻¹ s⁻¹. In the assay with bovine serum albumin, the binding result was “no binding”. Besides, in the assay with rabbit serum albumin [11], the “fold reduction in association rate for RbSA against HSA” value was determined as 18 fold. Moreover, the “fold lower affinity for RSA than for HSA” value with rat serum albumin [12] was about 10 fold. In addition, in the assay with mouse serum albumin [13], the “fold weaker affinity for MSA than for HSA” value stood at 1.2 fold.

B2: CA645 humanized IgG1 (conservative graft gL1gH1) (antibody, V domains shown)
VH: EVQLLESGGGLVQPGGSLRLSCAVSGIDLSNYAINWVRQAPGKGLEWIGIIWASGTTFYATWAKGRFTISRDSTTVYLQMNSLRAEDTAVYYCARTVPGYSTAPYFDLWGQGTLVTVSS
VL: B1 VL with Q3V, S64K
notes: Human IgG1, full human gamma1 constant region, human kappa constant region (Km3 allotype); also called CA645 gL1gH1
As to B2, the results for the Kd with human serum albumin [18], in the assay with rat serum albumin [19] and in the assay with mouse serum albumin [20] were 0.82 nM, 7.9 nM and 2.9 nM, respectively.

B3: CA645 gL28gH5 Fab (Fab, V domains shown)
VH: B1 VH
VL: B1 VL with S68L
notes: Fab: human gamma1 CH1, human kappa (Km3); Kabat numbering
As to B3, in the assay with human serum albumin [14], the Kd came to 1.85 nM, the koff was 0.000109 s⁻¹ and the kon is 59000 M⁻¹ s⁻¹.

B4: CA645 gL30gH5 Fab (Fab, V domains shown)
VH: B1 VH
VL: B1 VL with S68I
notes: as for B3
As for B4, in the assay with human serum albumin [14], the affinity, expressed as Kd, was 1.61 nM; the koff is 9.4e-05 s⁻¹; the kon came out at 58400 M⁻¹ s⁻¹.

B5: CA645 gL4gH46 Fab (Fab, V domains shown)
VH: B1 VH with V99Y
VL: B1 VL
notes: as for B3
In the assay with human serum albumin [14], B5 displayed a Kd of 3.26 nM, a koff of 0.000184 s⁻¹ and a kon of 56400 M⁻¹ s⁻¹.

B6: CA645 gL5gH5 Fab (Fab, V domains shown)
VH: B1 VH
VL: B1 VL with W30A
notes: as for B3
For the molecule B6, the figures for the Kd with human serum albumin [1], in the assay with human serum albumin [4] and with mouse serum albumin [5] were 453 nM, 254 nM and 316 nM, respectively. Further, the koff with human serum albumin [1] was 0.0571 s⁻¹; with human serum albumin [4], 0.022 s⁻¹; in the assay with mouse serum albumin [5], 0.0038 s⁻¹. For the same molecule, the kon with human serum albumin [1] is 126000 M⁻¹ s⁻¹; in the assay with human serum albumin [4] it was 85000 M⁻¹ s⁻¹; in the assay with mouse serum albumin [5], 12000 M⁻¹ s⁻¹. Also, the “fold weaker affinity than gL4gH5” value with human serum albumin [21] was determined as 368 fold. Moreover, the “fold weaker affinity for MSA than for HSA” value in the assay with mouse serum albumin [13] amounted to 1.2 fold.

B7: CA645 gL33gH5 Fab (Fab, V domains shown)
VH: B1 VH
VL: B1 VL with S68E
notes: as for B3
In the assay with human serum albumin [14], B7 yielded a Kd of 3.32 nM, a koff of 0.000179 s⁻¹ and a kon of 54000 M⁻¹ s⁻¹.

B8: CA645 gL11gH5 Fab (Fab, V domains shown)
VH: B1 VH
VL: B1 VL with S28N
notes: as for B3
In the assay with human serum albumin [14], B8 gave a Kd of 4.42 nM, a dissociation rate constant (koff) of 0.000249 s⁻¹ and a kon of 56400 M⁻¹ s⁻¹.

B9: CA645 gL31gH5 Fab (Fab, V domains shown)
VH: B1 VH
VL: B1 VL with S68T
notes: as for B3
In the case of B9, in the assay with human serum albumin [14], the Kd is 2.49 nM, the koff is 0.000142 s⁻¹ and the on-rate constant (kon) came out at 57200 M⁻¹ s⁻¹.

B10: CA645 gL29gH5 Fab (Fab, V domains shown)
VH: B1 VH
VL: B1 VL with S68V
notes: as for B3
On to B10, for which, in the assay with human serum albumin [14], the Kd turned out to be 1.78 nM, the off-rate (koff) worked out at 0.000103 s⁻¹ and the kon was found to be 57700 M⁻¹ s⁻¹.

B11: CA645 gL32gH5 Fab (Fab, V domains shown)
VH: B1 VH
VL: B1 VL with S68Q
notes: as for B3
As to B11, in the assay with human serum albumin [14], the Kd amounted to 2.44 nM, the koff stood at 0.000143 s⁻¹ and the kon came out at 58600 M⁻¹ s⁻¹.

B12: CA645 recombinant rabbit Fab (Fab, V domains shown)
VH: QSLEESGGRLVTPGTPLTLTCTVSGIDLSNYAINWVRQAPGKGLEWIGIIWASGTTFYATWAKGRFTISRPSTTVDLEMTSLTTADTATYFCARTVPGYSTAPYFDLWGPGTLVTVSS
VL: AAVLTQTPSPVSAAVGGTVTINCQSSPSVWSNFLSWYQQKPGQPPKLLIYEASKLTSGVPSRFKGSGSGTQFTLTISDVQCGDAATYYCGGGYSSISDTTFGGGTKVVVK
notes: Fab with rabbit heavy CH1 and rabbit light chain constant region
Turning to B12, the figures for the equilibrium dissociation constant (Kd) with human serum albumin [22] and with mouse serum albumin [23] were 0.31 nM and 2.6 nM, respectively.

B13: CA645 rabbit antibody secreted in B cell supernatant (antibody, V domains shown)
VH: B12 VH
VL: B12 VL
notes: Rabbit IgG secreted by cultured B cells
As to B13, in the assay with rat serum albumin [24], the “fold difference of binding level to RSA against HSA” value was at most 5 fold.

For the origin of these results see patent US20190144529A1 (UCB, published 2019).
